“And” between values parts separate entries of the source, which are not always exact repeats. Equal values may be shown once. Read-outs that look alike come from different tables or passages of the source.
Experiments:
SAXS [1] = molecular target: the molecule itself; experiment: SAXS
SAXS [2] = molecular target: the molecule itself; experiment: SAXS; remark: listed apart in the source

B1: Hepatitis B virus capsid protein assembly domain (cp149) dimer (domain or fragment)
chain: MDIDPYKEFGATVELLSFLPSDFFPSVRDLLDTAAALYRDALESPEHCSPHHTALRQAILCWGDLMTLATWVGTNLEDPASRDLVVSYVNTNVGLKFRQLLWFHISCLTFGRETVLEYLVSFGVWIRTPPAYRPPNAPILSTLPETTVV
SAXS [1]
  stoichiometry N: 240 monomers and 180 monomers
SAXS [2]
  stoichiometry N: 2
